Laboratory results reported in patent publication US20040018971A1 (published 2004).

B1: HER2/neu peptide, position 413, 10 amino acids (peptide)
peptide: SAWPDSLPDL
notes: T0022 prints L there and the analog Her2/neu.415.I8 implies a native L, so L is used
B2: Her2/neu.1149.F1I11 (peptide)
peptide: FPSPREGPLPI
notes: 11-mer analog of the HER2/neu peptide starting at position 1149
B3: Her2/neu.1157.F1I9 (peptide)
peptide: FPAARPAGI
notes: 9-mer analog of the HER2/neu peptide starting at position 1157
B4: Her2/neu.1151.F1I9 (peptide)
peptide: FPREGPLPI
notes: 9-mer analog of the HER2/neu peptide starting at position 1151
B5: Her2/neu.995.F1I10 (peptide)
peptide: FPASPLDSTI
notes: 10-mer analog of the HER2/neu peptide starting at position 995

Target: T1, HLA-A*0201 (human)
T1 construct: also called HLA-A2.1
Assay: competition with 125I-labelled standard peptide 941.01 for purified HLA, gel filtration

Row | Binder | relative binding ratio
1 | DIQEVQGYVL (also called Her2/neu.76 (10-mer)) [HER2/neu peptide, position 76, 10 amino acids] | 0.0001 ratio (IC50 of standard peptide / IC50 of test peptide)
2 | CVTACPYNYL (also called Her2/neu.295 (10-mer)) [HER2/neu peptide, position 295, 10 amino acids] | 0.0001 ratio (IC50 of standard peptide / IC50 of test peptide)
3 | AMPNQAQMRI (also called Her2/neu.705 (10-mer)) [HER2/neu peptide, position 705, 10 amino acids] | 0.0007 ratio (IC50 of standard peptide / IC50 of test peptide)
4 | DIFHKNNQL (also called Her2/neu.171 (9-mer)) [HER2/neu peptide, position 171, 9 amino acids] | 0.0002 ratio (IC50 of standard peptide / IC50 of test peptide)
5 | DLGMGAAKGL (also called Her2/neu.1089 (10-mer)) [HER2/neu peptide, position 1089, 10 amino acids] | 0.0001 ratio (IC50 of standard peptide / IC50 of test peptide)
6 | DLLEKGERL (also called Her2/neu.933 (9-mer)) [HER2/neu peptide, position 933, 9 amino acids] | 0.0002 ratio (IC50 of standard peptide / IC50 of test peptide)
7 | AVLDNGDPL (also called Her2/neu.115 (9-mer)) [HER2/neu peptide, position 115, 9 amino acids] | 0.0004 ratio (IC50 of standard peptide / IC50 of test peptide)
8 | CARVCYGLGM (also called Her2/neu.338 (10-mer)) [HER2/neu peptide, position 338, 10 amino acids] | 0.0011 ratio (IC50 of standard peptide / IC50 of test peptide)
9 | AALCRWGLLL (also called Her2/neu.4 (10-mer)) [HER2/neu peptide, position 4, 10 amino acids] | 0.001 ratio (IC50 of standard peptide / IC50 of test peptide)
10 | ALVTYNTDT (also called Her2/neu.270 (9-mer)) [HER2/neu peptide, position 270, 9 amino acids] | 0.0001 ratio (IC50 of standard peptide / IC50 of test peptide)
11 | CVARCPSGV (also called Her2/neu.596 (9-mer)) [HER2/neu peptide, position 596, 9 amino acids] | 0.0004 ratio (IC50 of standard peptide / IC50 of test peptide)
12 | ALLPPGAAST (also called Her2/neu.14 (10-mer)) [HER2/neu peptide, position 14, 10 amino acids] | 0.0001 ratio (IC50 of standard peptide / IC50 of test peptide)
13 | AARPAGATL (also called Her2/neu.1159 (9-mer)) [HER2/neu peptide, position 1159, 9 amino acids] | 0.0001 ratio (IC50 of standard peptide / IC50 of test peptide)
14 | DIQEVQGYV (also called Her2/neu.76 (9-mer)) [HER2/neu peptide, position 76, 9 amino acids] | 0.0001 ratio (IC50 of standard peptide / IC50 of test peptide)
15 | DLAARNVLV (also called Her2/neu.845 (9-mer)) [HER2/neu peptide, position 845, 9 amino acids] | 0.0002 ratio (IC50 of standard peptide / IC50 of test peptide)

Target: T2, HLA-A*0201 (human)
T2 construct: also called HLA-A2.1
Assay: inhibition of 125I-labelled standard peptide binding to purified HLA, gel filtration; ratio = IC50 of standard / IC50 of test peptide

Row | Binder | relative binding ratio
16 | TAENPEYLGL [HER2/neu peptide, position 1242, 10 amino acids] | 0.0001 ratio to standard peptide
17 | RLVHRDLAA [HER2/neu peptide, position 840, 9 amino acids] | 0.0001 ratio to standard peptide
18 | RLPQPPICT [HER2/neu peptide, position 940, 9 amino acids] | 0.0002 ratio to standard peptide
19 | SAVVGILLVV [HER2/neu peptide, position 656, 10 amino acids] | 0.0009 ratio to standard peptide
20 | SIISAVVGIL [HER2/neu peptide, position 653, 10 amino acids] | 0.0002 ratio to standard peptide
21 | TAPLQPEQL [HER2/neu peptide, position 389, 9 amino acids] | 0.0002 ratio to standard peptide
22 | B1 | 0.0002 ratio to standard peptide
23 | RMARDPQRFV [HER2/neu peptide, position 978, 10 amino acids] | 0.002 ratio to standard peptide
24 | RLPASPETHL [HER2/neu peptide, position 34, 10 amino acids] | 0.0001 ratio to standard peptide
25 | SLPTHDPSPL [HER2/neu peptide, position 1100, 10 amino acids] | 0.0059 ratio to standard peptide
26 | RLRIVRGTQL [HER2/neu peptide, position 98, 10 amino acids] | 0.0001 ratio to standard peptide
27 | SLRELGSGL [HER2/neu peptide, position 457, 9 amino acids] | 0.0002 ratio to standard peptide
28 | RASPLTSII [HER2/neu peptide, position 647, 9 amino acids] | 0.0002 ratio to standard peptide
29 | SVFQNLQVI [HER2/neu peptide, position 423, 9 amino acids] | 0.0017 ratio to standard peptide
30 | TIDVYMIMV [HER2/neu peptide, position 948, 9 amino acids] | 0.0005 ratio to standard peptide
31 | STDVGSCTLV [HER2/neu peptide, position 305, 10 amino acids] | 0.0001 ratio to standard peptide

Target: T3, HLA-A*0201 (human)
T3 construct: also called HLA-A2.1
Assay: competitive inhibition of 125I-labelled standard peptide binding to purified HLA, gel filtration

Row | Binder | relative binding ratio (IC50 of standard peptide / IC50 of test peptide)
32 | NVLVKSPNHV (Synthetic peptide) [HER2/neu A02 supermotif peptide, position 850, 10 amino acids] | 0.0001 ratio
33 | PAEQRASPL (Synthetic peptide) [HER2/neu A02 supermotif peptide, position 643, 9 amino acids] | 0.0001 ratio
34 | LVDAEEYLV (Synthetic peptide) [HER2/neu A02 supermotif peptide, position 1017, 9 amino acids] | 0.003 ratio
35 | LVSEFSRM (Synthetic peptide) [HER2/neu A02 supermotif peptide, position 972, 8 amino acids] | 0.0001 ratio
36 | PASPETHLDM (Synthetic peptide) [HER2/neu A02 supermotif peptide, position 36, 10 amino acids] | 0.0001 ratio
37 | MAGVGSPYV (Synthetic peptide) [HER2/neu A02 supermotif peptide, position 774, 9 amino acids] | 0.0014 ratio
38 | MARDPQRFV (Synthetic peptide) [HER2/neu A02 supermotif peptide, position 979, 9 amino acids] | 0.0001 ratio
39 | NLQVIRGRIL (Synthetic peptide) [HER2/neu A02 supermotif peptide, position 427, 10 amino acids] | 0.0001 ratio
40 | PAARPAGATL (Synthetic peptide) [HER2/neu A02 supermotif peptide, position 1158, 10 amino acids] | 0.0001 ratio
41 | PAFSPAFDNL (Synthetic peptide) [HER2/neu A02 supermotif peptide, position 1211, 10 amino acids] | 0.0001 ratio
42 | NASLSFLQDI (Synthetic peptide) [HER2/neu A02 supermotif peptide, position 68, 10 amino acids] | 0.0001 ratio
43 | LVCPLHNQEV (Synthetic peptide) [HER2/neu A02 supermotif peptide, position 313, 10 amino acids] | 0.0002 ratio
44 | MIMVKCWMI (Synthetic peptide) [HER2/neu A02 supermotif peptide, position 953, 9 amino acids] | 0.0051 ratio
45 | NVKIPVAIKV (Synthetic peptide) [HER2/neu A02 supermotif peptide, position 745, 10 amino acids] | 0.0001 ratio
46 | PAREIPDLL (Synthetic peptide) [HER2/neu A02 supermotif peptide, position 927, 9 amino acids] | 0.0001 ratio
47 | LVSEFSRMA (Synthetic peptide) [HER2/neu A02 supermotif peptide, position 972, 9 amino acids] | 0.0001 ratio

Target: HLA-B*5301 (human)
Assay: competition with 125I probe peptide, purified HLA

Row | Binder | IC50
48 | FPMCKGSRCI (analog peptide) [Her2/neu.196.F1] | 6640 nM
49 | CPLHNQEVTI (analog peptide) [Her2/neu.315.I10] | 274 nM
50 | FPTNASLSF (analog peptide) [Her2/neu.65.F1 (9-mer)] | 6.2 nM
51 | FPTNASLSI (analog peptide) [Her2/neu.65.F1I9] | 14 nM
52 | FPGGLRELQI (analog peptide) [Her2/neu.133.F1I10] | 310 nM
53 | FPTNASLSFI (analog peptide) [Her2/neu.65.F1I10] | 85 nM

Target: HLA-B*0702 (human)
Assay: competition with 125I probe peptide, purified HLA

Row | Binder | IC50
54 | FPMCKGSRCI (analog peptide) [Her2/neu.196.F1] | 183 nM
55 | CPLHNQEVTI (analog peptide) [Her2/neu.315.I10] | 458 nM
56 | FPTNASLSF (analog peptide) [Her2/neu.65.F1 (9-mer)] | 1.1 nM
57 | FPTNASLSI (analog peptide) [Her2/neu.65.F1I9] | 4.6 nM
58 | FPGGLRELQI (analog peptide) [Her2/neu.133.F1I10] | 306 nM
59 | FPTNASLSFI (analog peptide) [Her2/neu.65.F1I10] | 120 nM
60 | FPHQALLHTA (analog peptide) [Her2/neu.488.F1] | 393 nM

Target: HLA-B*5401 (human)
Assay: competition with 125I probe peptide, purified HLA

Row | Binder | IC50
61 | FPMCKGSRCI (analog peptide) [Her2/neu.196.F1] | 303 nM
62 | CPLHNQEVTI (analog peptide) [Her2/neu.315.I10] | 556 nM
63 | FPTNASLSF (analog peptide) [Her2/neu.65.F1 (9-mer)] | 556 nM
64 | FPTNASLSI (analog peptide) [Her2/neu.65.F1I9] | 2.8 nM
65 | FPGGLRELQI (analog peptide) [Her2/neu.133.F1I10] | 476 nM
66 | FPTNASLSFI (analog peptide) [Her2/neu.65.F1I10] | 53 nM
67 | FPHQALLHTA (analog peptide) [Her2/neu.488.F1] | 1.3 nM

Target: HLA-B*3501 (human)
Assay: competition with 125I probe peptide, purified HLA

Row | Binder | IC50
68 | FPTNASLSF (analog peptide) [Her2/neu.65.F1 (9-mer)] | 7.9 nM
69 | FPTNASLSI (analog peptide) [Her2/neu.65.F1I9] | 300 nM
70 | FPTNASLSFI (analog peptide) [Her2/neu.65.F1I10] | 424 nM
71 | FPHQALLHTA (analog peptide) [Her2/neu.488.F1] | 379 nM

Target: HLA-B*5101 (human)
Assay: competition with 125I probe peptide, purified HLA

Row | Binder | IC50
72 | FPMCKGSRCI (analog peptide) [Her2/neu.196.F1] | 500 nM
73 | CPLHNQEVTI (analog peptide) [Her2/neu.315.I10] | 42 nM
74 | FPTNASLSF (analog peptide) [Her2/neu.65.F1 (9-mer)] | 85 nM
75 | FPTNASLSI (analog peptide) [Her2/neu.65.F1I9] | 8.7 nM
76 | FPGGLRELQI (analog peptide) [Her2/neu.133.F1I10] | 1770 nM
77 | FPTNASLSFI (analog peptide) [Her2/neu.65.F1I10] | 23 nM
78 | FPHQALLHTA (analog peptide) [Her2/neu.488.F1] | 4230 nM

Target: HLA-B*5101 (human)
Assay: competition vs 125I-labelled probe peptide, purified HLA, gel filtration

Row | Binder | IC50
79 | B2 | 262 nM
80 | B3 | 131 nM
81 | B4 | 14 nM
82 | B5 | 20 nM

Target: HLA-B*0702 (human)
Assay: as above

Row | Binder | IC50
83 | B2 | 190 nM
84 | B3 | 9.3 nM
85 | B4 | 0.3 nM
86 | B5 | 20 nM

Target: HLA-B*5401 (human)
Assay: as above

Row | Binder | IC50
87 | B2 | 263 nM
88 | B3 | 48 nM
89 | B4 | 4 nM
90 | B5 | 14 nM

Target: HLA-B*5301 (human)
Assay: as above

Row | Binder | IC50
91 | B2 | 5170 nM
92 | B3 | 4230 nM
93 | B4 | 2820 nM
94 | B5 | 30 nM
